Source: the RNAGym collection of RNA variant scans (doi:10.1073/pnas.2313332121)

B1: TPR t1 (parent)
chain: GACCAAUCUGCCCUCAGAGCUCGAGAACAUCUUCGGAUGCAGAGGAGGCAGGCUUCGGUGGCGCGAUAGCGCCAACGUCCUCAACCUCCAAUGCAUCCCACCACAUGAUGAUGCCUGAAGAGCCUUGGUUUUUUG

Variants of: B1
Test: polymerase ribozyme fitness, log enrichment relative to wild type (log ratio); higher = more active; in vitro selection for triplet polymerase activity
Procedure, shortened: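 A single round of triplicate in vitro selection, including frozen incubation at −7 °C, was applied to PCR-built, transcribed mutant libraries of each subunit of a heterodimeric triplet polymerase ribozyme. Illumina sequencing of input and output libraries retained genotypes with ≥10 input reads and ≥1 read per output. Fitness is the base-2 logarithm of genotype enrichment divided by wild-type enrichment, from inverse-variance-weighted replicate averages.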

| Variant | polymerase ribozyme fitness (log ratio) |
| --- | --- |
| GACCAAUCUGCCCUCAGAGCUCGAGAACAUCUUCGGAUGGAGAGGAGGCAGGCUUCGGUGGCGCGAUAGCACCAACGGCCUCAACCUCCAAUGCAUCCCACCACAUGAUGAUGCCUGAAGAGCCUUGGUUUUUUG | -2.94 |
| GACCAAUCUGCCCUCAGAGCUCGAGAACAUCUUCGGAUGCAGAGGAGUCAGGCUUCGGUGGAGCGAUAGCGCCAACGGCCUCAACCUCCAAUGCAUCCCACCACAUGAUGAUGCCUGAAGAGCCUUGGUUUUUUG | -1.98 |
| GACCAAUCUGCCCUCAGAGCUCGAGAACAUCUUCGGAUGCAGAGGAGGCAGGCUUCGGUGACGCGAUAGCGCCAACGACCUCAACCUCCAAUGCAUCCCACCACAUGAUGAUGCCUGAAGAGCCUUGGUUUUUUG | -0.223 |
| GACCAAUCUGCCUUCAGAGCUCGAGAACAUCUUCGGAUGCAGAGGAGGCAGGCUUUGGUGGCGCGAUAGCGCCAACGUCCUCAACCUCCAAUGCAUCCCACCACAUGAUGAUGCCUGAAGCGCCUUGGUGUUUUG | 1.59 |
| GACGAAUCUGCCCUUAGAGCUCGAGAACAUCUUCGGAUGCAGAGGACGCAGGCUUCGGUGGCGCGAUAGCGCUAACGUCCUCAACCUCCAAUGCAUCCCACCACUUUAUGAUGCCUGAAGAGGCUAGGUUUUUUG | -7.47 |
| GACCAAUCUGCCCUCCGAGCUCGAGAACAUCUUCGGAUGCAGAGGAGGCAGGCUUCGGUGGCGCGAUAGUGCCAACGUCCUCAACCUCCAAUGCAUCCCACCACAUGAUGAUGCCUGAAGAGCCUUGGUUUUUUG | -3.17 |
| GACCACUCUGCCCUCAGAGCUCGAGAACAUCUUCUGAUACAGAGGAGGCAGGCUUCGGUGUCGCGAUAGCGCCCACGUCCUCAACUUCCAAUGCAUCCCAACACAUGAUGAUGCUUGAAGAGCCUUGGUUUUUUG | -6.88 |
| GACCAAUCUGCCAUCAGAGCUCGAGAACAUCUUCGGAUGCAGAGGAGGCAGGGUUCGGUGGCGCGAUAGUGCCAACGUCCUCAACCUCCAAUGCAUCCCACCACAUGAUGAUGCCUGAAGAGCCUUGGUUUUUUG | -2.31 |
| GACCUAUCUGCCCUCAGAGCUCGAGAACAUCUUCGGAUGCAGAGGAGGCAGGCUUCGGUGGGGCGAUAGCGCCAACGUCCUCAACCUCCGAUGCAUCCCACCACAUGAUGAUGCCUGAAGAGUCUUGGUUUUUUG | -0.143 |
| GACCUGUCUGCCCUCAGAGCUCGAGAACAUCUUCGGAUGCAGAGGAGGCAGGUUUCGGUGGCGCGAUAGCGCCAACGUCCUCAACCUCCAAUGCAUCCCACCACAUGAUGAUGCCUAAAGAGCCUUGGAUUUUUG | -2.59 |
| GACCAAUCUGCCCUCAGAGCACGAGAACAUCUUCGGAUGCAGAGGAGGCAGCCUUAGGUGGCGCGAUAGCGCCAAUGUCCUCAACCUCCAAUGCAUCCCAUCACAUGAUGAUGCCUGAAGAGCCUUGGUUUUUUG | -3.81 |
| GACCUAUCUGCCCUCAGAGCUCGAGAACAUCUUCGGAUGCAGAGGAGGCAGGCUUCGGUGGCGGGAUAGCGCCAACGUCCUCAACCUCCAAUGCAUCCCACCACAUGAUGAUGCCUGAAGAGCUUUGGUUUUUUG | -6.6 |
| GACCAAUCUGCCCUCGGAGCUCGAGAACUUCUUCGGAUGAAGAGGAGGCAGGCUUCGGUGUCGCGAUAGCGCCAACGUCCUCAACCUCCAAUGCAUCCCACCACAUGAUGAUGCCUGAAGAGCCUUGGUUUUUUG | -4.63 |
| GACCACUCUGCCCUCAGAGCUCGAGAACAUCUUCGGAUGCAGAGGAGGCAGGCUUCGGUGGCGCGAUAUCGUCAACGUCCUCAACCUCCAAUGCAUCCCACCACAUGAUGAUGCCUGAAGAGCCUUGGUUUUUUG | -0.0767 |
| GACCAAUCUGCCCUCAGAGCUCGAGAACAUCUUCGGAUGCAGAGGAGGCAGGCUUCGGUGGCGCGAUAGCGCCAACGUCUUCAACCUUCAAUGCAUCCCACCACAUGAUGAUGCCUGAAGAGCCUUCGUUUUUUG | -1.46 |
| GACCAAUCUGCCCUCAGAGCUCGAGAACAUCUACGGUUGCAGAGGAGGCAGGCUCCGGUGGCUCGAUAGCGCCAACGUCCUCAACCUCCAAUGCAUCCCCCCACAUGAUGAUGCCUGAAGAGCCUUGGUUUUUUG | -7.2 |
| GACCAAUCUGCCCUCAGUGCUCGAGAACAUCUUCGGAGGCAGAGGAGGCAGGCUUCGGUGGCGCGAUAGCGCCAACGUCCUCAACCUCCAAUGCAUCCCACCACAUGAUGAUGCCUGAAGAGACUUGGUUUUUUG | -4.13 |
| GACCAAUCUGCCCUCAGAGCUCGAGAACAUCUUCGGAUGCAGAGGAGACAGGCUUCGGUGGCGCGAUAGCGCCAACGUCCUCAACCUCCAAUGCAUCCCACCACAUGAUGAAGCCUGAAGAGCCUUGGUUUUUUG | 0.917 |
| GACUAAUCUGCCCUCAGAGCUCGAGAACAUCUUCGGAUGCAGAGGAGGCAGGCUUCGGUGGCGCGAUAGCACCAACGUCCUCAACCACCAAUGCAUUCCACCACAUGAUGAUGCCUGAAGAGCCUUGGUUUUUUG | -1.86 |
| GACCAAUCUGCCCUCAGAGCUCGAGAACAUCUUCGGAUGCAGAGGAGGCAGGCUUCGGUGGCGCGAUAUCGCCAACGUCCUCAACGUCCAAUGCAUCCCACCACAUGAUGAUGCCUGAACAGCCUUGGUUUUUUG | 0.63 |
| GACCAAUCUGCACUCAGAGCUCGAGAACAUCUUCGGAUGCAGAGGAGGCUGGCUUCGGUGCCGCGAUAGCGCCAACGCCCUCAAUCUCCAAUGCAUCCCACCACAUGAUGAUGCCUGAAGAGCUUUGGUUUUUUG | -6.64 |
